Measured values reported in US20030068675, “Position dependent recognition of GNN nucleotide triplets by zinc fingers” (published 2003).
Where a chain is given by its changes, count along the chain named.

Key:
Experiment in all cases: EMSA
Conditions in all cases: tags: MBP fusion
ZFP SBS#738 = molecular target: T1, ZFP SBS#738 (synthetic)
T1 chain: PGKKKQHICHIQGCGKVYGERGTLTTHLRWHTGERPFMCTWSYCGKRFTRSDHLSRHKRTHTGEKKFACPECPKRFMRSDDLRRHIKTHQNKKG
Method in brief: (§1)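 Purified ZFP was titrated against labeled double-stranded target (1 nM or lower, at least 10-fold below expected Kd) carrying the natural binding site with flanks. Binding buffer was 10 mM Tris pH 7.5, 100 mM KCl, 1 mM MgCl2, 0.1 mM ZnCl2, 5 mM DTT, 10% glycerol, 0.02% BSA, with equilibration for at least 45 min. Bound and free target were separated on a 10% polyacrylamide gel.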

ZFP SBS#668 = molecular target: T2, ZFP SBS#668 (synthetic)
T2 chain: T1 chain with T25A, T26R, H53N, S55A, D81A, R83A
Method in brief: as §1

ZFP SBS#829 = molecular target: T3, ZFP SBS#829 (synthetic)
T3 chain: T1 chain with R21K, G22A, T23N, T26R, H53N, S55A, D81T, R83K, R84K
Method in brief: as §1

ZFP SBS#828 = molecular target: T4, ZFP SBS#828 (synthetic)
T4 chain: T1 chain with R21K, G22A, T23N, T26R, H53N, S55A, D81E, L82R, R83K
Method in brief: as §1

ZFP SBS#842 = molecular target: T5, ZFP SBS#842 (synthetic, UniProt P08047)
T5 chain: T1 chain with E20D, G22S, T23H, T26R, H53A, S55A, D81N, R83A
Method in brief: as §1

ZFP SBS#670 = molecular target: T6, ZFP SBS#670 (synthetic)
T6 chain: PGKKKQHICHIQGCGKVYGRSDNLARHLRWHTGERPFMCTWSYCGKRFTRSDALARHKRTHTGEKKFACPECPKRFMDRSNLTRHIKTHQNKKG
Method in brief: as §1

ZFP SBS#825 = ZFP SBS#825 (synthetic)
Method in brief: as §1

ZFP SBS#818 = ZFP SBS#818 (synthetic)
Method in brief: as §1

ZFP SBS#801 = ZFP SBS#801 (synthetic)
Sequence of ZFP SBS#801 (synthetic) (chain, as listed by the source): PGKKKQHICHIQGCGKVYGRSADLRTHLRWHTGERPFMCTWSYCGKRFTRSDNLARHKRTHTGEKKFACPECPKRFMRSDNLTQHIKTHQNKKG
Method in brief: as §1

ZFP SBS#894 = molecular target: T7, ZFP SBS#894 (synthetic)
T7 chain: T1 chain with E20Q, G22S, T23A, T25A, T26R, H53A, R78Q, D80H, R83T, R84K
Method in brief: as §1

ZFP SBS#887 = molecular target: T8, ZFP SBS#887 (synthetic)
T8 chain: T1 chain with E20Q, G22S, T23A, T25A, T26R, H53A, R78Q, D80G, R84T
Method in brief: as §1

ZFP SBS#891 = molecular target: T9, ZFP SBS#891 (synthetic)
T9 chain: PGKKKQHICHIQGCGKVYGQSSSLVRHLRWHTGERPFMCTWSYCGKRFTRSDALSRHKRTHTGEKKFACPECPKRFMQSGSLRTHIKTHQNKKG
Method in brief: as §1

ZFP SBS#888 = molecular target: T10, ZFP SBS#888 (synthetic)
T10 chain: T9 chain with G80H, S81D, R83T, T84K
Method in brief: as §1

ZFP SBS#669 = molecular target: T11, ZFP SBS#669 (synthetic)
T11 chain: T6 chain with N23E, A25R, R26T, A53N
Method in brief: as §1

ZFP SBS#663 = molecular target: T12, ZFP SBS#663 (synthetic)
T12 chain: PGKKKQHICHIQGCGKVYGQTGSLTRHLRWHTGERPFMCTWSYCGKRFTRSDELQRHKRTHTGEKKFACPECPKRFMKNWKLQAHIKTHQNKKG
Method in brief: as §1

ZFP SBS#664 = molecular target: T13, ZFP SBS#664 (synthetic)
T13 chain: T12 chain with S51A, E53T, Q55R, K78A, N79S, W80S, K81R, Q83A, A84T
Method in brief: as §1

ZFP SBS#662 = ZFP SBS#662 (synthetic, UniProt P08047)
Sequence of ZFP SBS#662 (P08047 other isoform, or with tags, fused parts or gaps): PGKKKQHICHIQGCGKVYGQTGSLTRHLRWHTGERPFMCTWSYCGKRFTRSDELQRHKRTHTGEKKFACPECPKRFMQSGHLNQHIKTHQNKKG
Method in brief: as §1

ZFP SBS#667 = molecular target: T14, ZFP SBS#667 (synthetic)
T14 chain: T1 chain with E20D, G22S, T23N, T26R, H53E, S55R, R56T, D81N, R83A
Method in brief: as §1

ZFP SBS#850 = ZFP SBS#850 (synthetic)
Method in brief: as §1

ZFP SBS#671 = molecular target: T15, ZFP SBS#671 (synthetic)
T15 chain: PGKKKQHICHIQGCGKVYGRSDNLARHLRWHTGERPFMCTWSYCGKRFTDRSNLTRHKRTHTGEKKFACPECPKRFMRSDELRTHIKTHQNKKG
Method in brief: as §1

ZFP SBS#674 = molecular target: T16, ZFP SBS#674 (synthetic)
T16 chain: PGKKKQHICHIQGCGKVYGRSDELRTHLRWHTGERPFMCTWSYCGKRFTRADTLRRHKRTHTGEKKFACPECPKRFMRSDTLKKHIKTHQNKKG
Method in brief: as §1

ZFP SBS#817 = molecular target: T17, ZFP SBS#817 (synthetic)
T17 chain: T6 chain with N23S, A25T, A53N, D78R, R79S, S80D, T83A
Method in brief: as §1

ZFP SBS#884 = molecular target: T18, ZFP SBS#884 (synthetic)
T18 chain: T6 chain with N23S, A25T, A53N, D78R, R79S, S80D, T83V
Method in brief: as §1

ZFP SBS#897 = molecular target: T19, ZFP SBS#897 (synthetic)
T19 chain: T6 chain with N23A, A53N, D78R, R79S, S80D, T83V
Method in brief: as §1

ZFP SBS#673 = ZFP SBS#673 (synthetic)
Sequence of ZFP SBS#673 (synthetic) (chain, as listed by the source): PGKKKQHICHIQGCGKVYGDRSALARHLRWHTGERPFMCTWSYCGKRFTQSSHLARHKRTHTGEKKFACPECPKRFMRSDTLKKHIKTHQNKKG
Method in brief: as §1

ZFP SBS#804 = ZFP SBS#804 (synthetic)
Method in brief: as §1

ZFP SBS#803 = molecular target: T20, ZFP SBS#803 (synthetic)
T20 chain: T9 chain with S23D, V25Q, A53E, S55Q, R83T, T84R
Method in brief: as §1

ZFP SBS#835 = molecular target: T21, ZFP SBS#835 (synthetic)
T21 chain: T15 chain with S21A, N23T, A25R, D50Q, R51S, S52G, N53H, E81N, R83T
Method in brief: as §1

ZFP SBS#847 = molecular target: T22, ZFP SBS#847 (synthetic)
T22 chain: T15 chain with N23D, A25T, D50Q, R51S, S52G, N53H, E81N, R83T
Method in brief: as §1

ZFP SBS#672 = molecular target: T23, ZFP SBS#672 (synthetic)
T23 chain: T15 chain with N23A
Method in brief: as §1

ZFP SBS#836 = molecular target: T24, ZFP SBS#836 (synthetic, UniProt P08047)
T24 chain: T1 chain with T25A, T26R, H53N, S55A, D81H, R83S
Method in brief: as §1

ZFP SBS#848 = molecular target: T25, ZFP SBS#848 (synthetic, UniProt P08047)
T25 chain: T1 chain with E20D, G22S, T23S, T26R, H53N, S55A, D81H, R83S
Method in brief: as §1

B1: GCGGGGTCCG (dsDNA)
DNA 1: GCGGGGTCCG
DNA 2: CGGACCCCGC
- Kd (ZFP SBS#738): 120 nM

B2: GTGGAGGCCA (dsDNA)
DNA 1: GTGGAGGCCA
DNA 2: TGGCCTCCAC
- Kd (ZFP SBS#668): 1.13 nM

B3: GCGGAGGACC (dsDNA)
DNA 1: GCGGAGGACC
DNA 2: GGTCCTCCGC
- Kd (ZFP SBS#829): 0.52 nM
- Kd (ZFP SBS#828): 0.1 nM

B4: GAGGTGGGCT (dsDNA)
DNA 1: GAGGTGGGCT
DNA 2: AGCCCACCTC
- Kd (ZFP SBS#842): 5.4 nM

B5: GACGTGGAGG (dsDNA)
DNA 1: GACGTGGAGG
DNA 2: CCTCCACGTC
- Kd (ZFP SBS#670): 0.57 nM

B6: GAATGGGCAG (dsDNA)
DNA 1: GAATGGGCAG
DNA 2: CTGCCCATTC
- Kd (ZFP SBS#825): 37.3 nM
- Kd (ZFP SBS#818): 167 nM

B7: AAGGAGTCGC (dsDNA)
DNA 1: AAGGAGTCGC
DNA 2: GCGACTCCTT
- Kd (ZFP SBS#801): 0.85 nM

B8: TCAGTGGTAT (dsDNA)
DNA 1: TCAGTGGTAT
DNA 2: ATACCACTGA
- Kd (ZFP SBS#894): 6.15 nM
- Kd (ZFP SBS#887): 23.8 nM
- Kd (ZFP SBS#891): 18.5 nM
- Kd (ZFP SBS#888): 14 nM

B9: GACGAGTCGG (dsDNA)
DNA 1: GACGAGTCGG
DNA 2: CCGACTCGTC
- Kd (ZFP SBS#669): 90 nM

B10: AGAGCGGCAC (dsDNA)
DNA 1: AGAGCGGCAC
DNA 2: GTGCCGCTCT
- Kd (ZFP SBS#663): 115 nM
- Kd (ZFP SBS#664): 125 nM
- Kd (ZFP SBS#662): 50 nM

B11: GAGTCGGACG (dsDNA)
DNA 1: GAGTCGGACG
DNA 2: CGTCCGACTC
- Kd (ZFP SBS#667): 50 nM

B12: CAGGCTGTGG (dsDNA)
DNA 1: CAGGCTGTGG
DNA 2: CCACAGCCTG
- Kd (ZFP SBS#850): 17 nM

B13: TCGGACGAGT (dsDNA)
DNA 1: TCGGACGAGT
DNA 2: ACTCGTCCGA
- Kd (ZFP SBS#671): 64 nM

B14: GCGGCGTCGG (dsDNA)
DNA 1: GCGGCGTCGG
DNA 2: CCGACGCCGC
- Kd (ZFP SBS#674): 27.5 nM

B15: GAGGAGGTGA (dsDNA)
DNA 1: GAGGAGGTGA
DNA 2: TCACCTCCTC
- Kd (ZFP SBS#817): 0.31 nM
- Kd (ZFP SBS#884): 0.15 nM
- Kd (ZFP SBS#897): 0.07 nM

B16: GCGGGTGTCT (dsDNA)
DNA 1: GCGGGTGTCT
DNA 2: AGACACCCGC
- Kd (ZFP SBS#673): 48.3 nM

B17: GCAGCGGCTC (dsDNA)
DNA 1: GCAGCGGCTC
DNA 2: GAGCCGCTGC
- Kd (ZFP SBS#804): 82.5 nM
- Kd (ZFP SBS#803): 57.5 nM

B18: TAGGGAGCGT (dsDNA)
DNA 1: TAGGGAGCGT
DNA 2: ACGCTCCCTA
- Kd (ZFP SBS#835): 150 nM
- Kd (ZFP SBS#847): 150 nM

B19: TCGGACGTGG (dsDNA)
DNA 1: TCGGACGTGG
DNA 2: CCACGTCCGA
- Kd (ZFP SBS#672): 24 nM

B20: GGGGAGGCCC (dsDNA)
DNA 1: GGGGAGGCCC
DNA 2: GGGCCTCCCC
- Kd (ZFP SBS#836): 24.2 nM
- Kd (ZFP SBS#848): 49.5 nM
